Experiment [1] deals with T1, H3 peptide 36-57HA2 (wild type) (Influenza A virus A/Hong Kong/1/1968 …, UniProt Q91MA7, strain).
T1 construct: source: synthetic peptide
The experiment is described as follows: ELISA. The conditions noted are these: both partners purified. In general terms: In an ELISA, binding on a coated surface is turned into a signal by an enzyme label.

Experiment [2] deals with recombinant human insulin (Homo sapiens, UniProt P01308). The experiment is described as follows: ELISA. The conditions noted are these: both partners purified.
Sequence of recombinant human insulin (P01308 whole entry, looked up): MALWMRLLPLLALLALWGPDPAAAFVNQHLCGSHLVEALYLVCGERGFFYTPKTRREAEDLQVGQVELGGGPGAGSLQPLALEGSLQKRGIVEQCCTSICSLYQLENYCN

B1: 3I14 (antibody, V domains shown)
VH: QVQLLESGGGVVQPGRSLRLSCAASGFTFSNYGMHWVRQAPGKGLEWVAIISFDGSKKYYANSVKGRSTISRDNSKNTLSLQMNSLGPEDTALYYCAKLPSPYYFDSRFVWVAASAFHFWGQGILVTVSS
VL: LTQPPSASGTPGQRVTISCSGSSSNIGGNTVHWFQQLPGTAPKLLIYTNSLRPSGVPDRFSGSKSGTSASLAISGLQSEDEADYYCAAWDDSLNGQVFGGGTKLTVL
notes: source: Expi CHO cells, cotransfected, purified (Protein A Agarose)
In the case of B1, the binding result in experiment [1] was “binds”.

B2: antibody 28-6 (antibody, V domains shown)
VH: EVQLVQSGGGLAQPGGSLRLSCTASGFAFSSYGMNWVRQTPGKGLEWVSYISSGSTIIDYAGSVKGRFTISRDNAKNSLHLEMNSLRDEDTAVYYCARDRGCSSTTCYVIGYYYYGMDVWGQGTTVTVSS
VL: DIQMTQSPSSVSASVGDRVTITCRASQGINRRLVWYQQKPGKVPKLLIYDASSLQCGVPSRFSGSGSGTDFTITISSLQPEDFATYYCQQADSFPLTFGQGTRLEIK
In the case of B2, the binding result in experiment [2] was “no binding”.

B3: antibody 28-2 (antibody, V domains shown)
VH: EVQLVESGGGLVQPGGSLRLSCAASGFTFSTYSMNWVRQAPGKGLEWLSYISTSSSTIDYADSVKGRFTISRDNAKNSLYLQMNSLRDEDTAVYYCARDRGCSSTNCYVVGYYFYGMDVWGQGTTVTVSS
VL: DIQMIQSPSSVSASVGDRVTITCRASQGISSYLAWYQQKPGKAPKLLIYAASRLQSGVPSRFSGSGSGTDFTLTISGLQPEDFATYHCQQANSFPLTFGQGTRLEIK
In the case of B3, the binding result in experiment [2] is on record as “no binding”.

B4: antibody 28-4 (antibody, V domains shown)
VH: EVQLVQSGGGLVQPGGSLGLSCAASGFTFSNYNMNWVRQAPGKGLEWLAYISGSSNTIFYADSVKGRFTISRDNAKNSLHLQMSSLRDEDTAVYYCARDRGCNSNICYVVGYYFYGMDDWGQGTTVTVSS
VL: DIQMTQSPSSVSASVGDRVTITCRASQAITSYLVWYQQKPGKAPKLLIYDAARLESGVPSRFSGSGSGTHFTLTINNLQPEDFATYYCQQADSFPLTFGQGTRLEIK
With B4, the binding result in experiment [2] is given as “no binding”.

The values are drawn from PMC9061721 (Nature Communications, 2022).
